Molecular target: T1, HLA-A*0201 expressed on T2 cells (human)
T1 construct: also called HLA-A2
Assay: cell-based peptide binding assay on T2 cells

SLLACALEV (also called Rb peptide) [Rb485-493 (Rb7) peptide]
binding result: binds

Reference: US20090317415A1 (UNIVERSITY COLLEGE CARDIFF CONSULTANTS, published 2009)
